# From US20240293570A1 (priority 2021, published 2024)
# Read-outs that look alike come from different tables or passages of the source. *1 amine or outer side, *2 acyl side, *3 side chain or, on linkers, in order; H or OH if unused. Where a SMILES comes first, the peptide text is derived from it. [ ]: non-standard residue; d: D form. The star is where a group is joined. MaleimidoPEG4propanoyl = O=C1C=CC(=O)N1CCOCCOCCOCCOCCC(=O)*; X2 = CO[C@@H]([C@H]1CCCN1[*:1])[C@@H](C)C(=O)[*:2]; Propanoyl(3-maleimido) = O=C1C=CC(=O)N1CCC(=O)*; Dil = CC[C@H](C)[C@H](NC)[C@@H](CC(=O)O)OC; X1 = O=C(CN1CCOCCN([*:1])CCOCC1)[*:2]; PABC = O=C(OCc1ccc(N[*:1])cc1)[*:2]; X3 = C[C@@H](N*)[C@@H](O)c1ccccc1; NMeV = CN[C@H](C(=O)O)C(C)C
# Tests used:
# [1] = assay type: physicochemical; details: ADC with Her2 antibody, RP-HPLC-MS
# Description: (§1) A drug-antibody conjugating ratio (also known as drug-antibody ratio, abbreviated as DAR) of the antibody-drug conjugate was tested using reversed-phase high-performance liquid chromatography-mass chromatography (RP-HPLC-MS). The ADC sample was diluted with 50 mmol/L Tris buffer (pH 8.0) to 1 mg/ml. A fresh dithiothreitol (DTT) stock solution was added to achieve a final DTT concentration of 50 mmol/L. Incubation was performed at 37° C. for 30 minutes. A PLRP-S chromatographic column (1000 Å pores, 2.1×50 mm, 5) μm) was used, and the column temperature was 70° C. The flow rate was 0.25 mL/min. […] of sample was injected; the mobile phase A was an aqueous solution of 0.1% formic acid (V/V) and 0.025% trifluoroacetic acid (V/V), and the mobile phase B was an acetonitrile solution of 0.1% formic acid (V/V) and 0.025% trifluoroacetic acid (V/V); the running time was 0-3 minutes, where 27% of mobile phase B ran for 3 minutes, and the mobile phase B ran from 27% to 49% within 3-25 minutes, from 49% to 95% within 25-26 minutes, at 95% within […], from 95% to 27% within 30-31.5 minutes, and at 27% for 31.5-45 minutes. […] Mass spectrometry drying gas was at a temperature of 350° C. and a flow rate of 7.0 L/min, the pressure of an atomizer was 40 psi, capillary voltage was positive 3000V and negative 3000V, and the mass range was 500-1600 m/z. The molecular weight of each mass spectrometry peak (ranging from 20000 to 70000) was calculated by deconvolution and compared with light and heavy chain molecular weights of un-conjugated antibodies to calculate a drug load at each peak, so as to determine the load of a corresponding ultraviolet peak. Area percentages of heavy and light chain ultraviolet peaks were calculated through integration, and a weighted average DAR of the antibody-drug conjugate was calculated by combining the area percentages with the drug load distribution of each peak.
# [2] = Polymer (high molecular component) content of antibody-drug conjugates by SE-HPLC; assay type: physicochemical; details: ADC with Her2 antibody
# Description: (§2) Polymers (high molecular components) of the antibody-drug conjugates were tested using molecular exclusion high-performance liquid chromatography (SE-HPLC). A Biocore SEC chromatographic column (7.8×300 mm, […]) was used, and the mobile phase was 50 mM phosphate containing 300 mM sodium chloride (pH 6.8), with a flow rate of 0.5 mL/min. Samples of […] and 10 μl were injected. […] The polymer content of an antibody-drug conjugate was calculated using an area normalization method.
# [3] = Naked antibody content of antibody-drug conjugates by hydrophobic interaction chromatography (HIC); assay type: physicochemical; details: ADC with Her2 antibody
# Description: The content of naked antibodies in the antibody-drug conjugate was tested using hydrophobic interaction chromatography (HIC). A Biocore HIC-Butyl chromatographic column (4.6×150 mm, 5 μm) was used. The mobile phase A was a 100 mM phosphate aqueous solution containing 2 M ammonium sulfate (pH 7.0), and the mobile phase B was a 100 mM phosphate aqueous solution (pH 7.0): isopropanol=80:20 (V/V). Samples of 50 μg and 10 μl were injected. The mobile phase A at the flow rate of 1 mL/min ran at 100% for 3 minutes. Within 3-25 minutes, the mobile phase B ran from […] to 100%, while the mobile phase B decreased to 0% at 25.1 and ran to 30 minutes. […] The naked antibody content of the antibody-drug conjugate was calculated using an area normalization method based on the retention time of a naked antibody peak located by the antibody of the antibody-drug conjugate.
# [4] = Stability (placement) test of ADCs at 40° C. in dark for 14 days, DAR and polymer content; assay type: physicochemical
# Description: as §2, §1
# Stability testing method: The stability of the obtained ADCs was tested for 14 days. The ADCs were placed at 40° C. in dark. Sampling points were days 0, 7, and 14. The polymer content and DAR value of samples at different sampling points were tested according to the method in Experimental Example 1.
smiles,measurement,setting,value
C=C1C[C@@H]2CC[C@@]34C[C@H]5OC6C(O[C@H]7CC[C@H](CC(=O)C[C@@H]8[C@@H](OC)[C@@H](C[C@H](O)CNC(=O)CNC(=O)[C@H](Cc9ccccc9)NC(=O)CNC(=O)CN9CCOCCOCCN(C(=O)CCCC%10C(=O)C=CC%10=O)CCOCCOCC9)O[C@H]8C[C@H]8O[C@@H](CC[C@@H]1O2)C[C@@H](C)C8=C)O[C@@H]7[C@@H]6O3)[C@H]5O4 [Example 42],DAR,[1],4.12
same,Polymer content (%),[2],1.25%
same,Naked antibody content (%),[3],1.06%
same,DAR,"[4]; Day 0, 40° C. in dark",4.12
same,Polymer content (%),"[4]; Day 0, 40° C. in dark",1.25%
same,DAR,"[4]; Day 7, 40° C. in dark",4.11
same,Polymer content (%),"[4]; Day 7, 40° C. in dark",1.28%
same,DAR,"[4]; Day 14, 40° C. in dark",4.08
same,Polymer content (%),"[4]; Day 14, 40° C. in dark",1.26%
C=C1C[C@@H]2CC[C@@]34C[C@H]5OC6C(O[C@H]7CC[C@H](CC(=O)C[C@@H]8[C@@H](OC)[C@@H](C[C@H](O)CNC(=O)OCc9ccc(NC(=O)[C@H](CCCNC(N)=O)NC(=O)[C@@H](NC(=O)CN%10CCOCCN(C(=O)CCN%11C(=O)C=CC%11=O)CCOCC%10)C(C)C)cc9)O[C@H]8C[C@H]8O[C@@H](CC[C@@H]1O2)C[C@@H](C)C8=C)O[C@@H]7[C@@H]6O3)[C@H]5O4 [Example 87],DAR,[1],3.85
same,Polymer content (%),[2],1.12%
same,Naked antibody content (%),[3],2.11%
same,DAR,"[4]; Day 0, 40° C. in dark",3.85
same,Polymer content (%),"[4]; Day 0, 40° C. in dark",1.12%
same,DAR,"[4]; Day 7, 40° C. in dark",3.87
same,Polymer content (%),"[4]; Day 7, 40° C. in dark",1.15%
same,DAR,"[4]; Day 14, 40° C. in dark",3.81
same,Polymer content (%),"[4]; Day 14, 40° C. in dark",1.24%
C=C1C[C@@H]2CC[C@@]34C[C@H]5OC6C(O[C@H]7CC[C@H](CC(=O)C[C@@H]8[C@@H](OC)[C@@H](C[C@H](O)CNC(=O)CNC(=O)[C@H](Cc9ccccc9)NC(=O)CNC(=O)CNC(=O)CCOCCOCCN(CCOCCOCCC(=O)NCC(=O)NCC(=O)N[C@@H](Cc9ccccc9)C(=O)NCC(=O)NCOCC(=O)N[C@H]9CCc%10c(C)c(F)cc%11nc%12c(c9c%10%11)Cn9c-%12cc%10c(c9=O)COC(=O)[C@]%10(O)CC)C9CCC(NC(=O)CN%10CCOCCOCCOCCN(C(=O)CCCCCN%11C(=O)C=CC%11=O)CCOCCOCCOCC%10)CC9)O[C@H]8C[C@H]8O[C@@H](CC[C@@H]1O2)C[C@@H](C)C8=C)O[C@@H]7[C@@H]6O3)[C@H]5O4 (stereo partly drawn) [Example 19],DAR,[1],3.92
same,Polymer content (%),[2],1.53%
same,Naked antibody content (%),[3],5.22%
same,DAR,"[4]; Day 0, 40° C. in dark",3.92
same,Polymer content (%),"[4]; Day 0, 40° C. in dark",1.53%
same,DAR,"[4]; Day 7, 40° C. in dark",3.91
same,Polymer content (%),"[4]; Day 7, 40° C. in dark",1.56%
same,DAR,"[4]; Day 14, 40° C. in dark",3.87
same,Polymer content (%),"[4]; Day 14, 40° C. in dark",1.49%
CC[C@H](C)[C@@H]([C@@H](CC(=O)N1CCC[C@@H]1[C@H](OC)[C@@H](C)C(=O)N[C@H](C)[C@@H](O)c1ccccc1)OC)N(C)C(=O)[C@@H](NC(=O)[C@H](C(C)C)N(C)C(=O)OCc1ccc(NC(=O)CNC(=O)[C@H](Cc2ccccc2)NC(=O)CNC(=O)CN2CCOCCN(C(=O)CCN3C(=O)C=CC3=O)CCOCC2)cc1)C(C)C [Example 86] ({Propanoyl(3-maleimido)}-[X1]GFG[PABC][NMeV]V[Dil][X2]-X3),DAR,[1],4.20
same,Polymer content (%),[2],0.97%
same,Naked antibody content (%),[3],3.45%
same,DAR,"[4]; Day 0, 40° C. in dark",4.20
same,Polymer content (%),"[4]; Day 0, 40° C. in dark",0.97%
same,DAR,"[4]; Day 7, 40° C. in dark",4.23
same,Polymer content (%),"[4]; Day 7, 40° C. in dark",0.99%
same,DAR,"[4]; Day 14, 40° C. in dark",4.16
same,Polymer content (%),"[4]; Day 14, 40° C. in dark",1.11%
C=C1C[C@@H]2CC[C@@]34C[C@H]5OC6C(O[C@H]7CC[C@H](CC(=O)C[C@@H]8[C@@H](OC)[C@@H](C[C@H](O)CNC(=O)CNC(=O)[C@H](Cc9ccccc9)NC(=O)CNC(=O)CNC(=O)CCOCCOCCN(CCOCCOCCC(=O)NCC(=O)NCC(=O)N[C@@H](Cc9ccccc9)C(=O)NCC(=O)NCOCC(=O)N[C@H]9CCc%10c(C)c(F)cc%11nc%12c(c9c%10%11)Cn9c-%12cc%10c(c9=O)COC(=O)[C@]%10(O)CC)C9CCC(NC(=O)CN%10CCOCCOCCOCCN(C(=O)CCOCCOCCOCCOCCN%11C(=O)C=CC%11=O)CCOCCOCCOCC%10)CC9)O[C@H]8C[C@H]8O[C@@H](CC[C@@H]1O2)C[C@@H](C)C8=C)O[C@@H]7[C@@H]6O3)[C@H]5O4 (stereo partly drawn) [Example 20],DAR,[1],3.85
same,Polymer content (%),[2],1.48%
same,Naked antibody content (%),[3],4.23%
same,DAR,"[4]; Day 0, 40° C. in dark",3.85
same,Polymer content (%),"[4]; Day 0, 40° C. in dark",1.48%
same,DAR,"[4]; Day 7, 40° C. in dark",3.87
same,Polymer content (%),"[4]; Day 7, 40° C. in dark",1.50%
same,DAR,"[4]; Day 14, 40° C. in dark",3.89
same,Polymer content (%),"[4]; Day 14, 40° C. in dark",1.43%
CC[C@H](C)[C@@H]([C@@H](CC(=O)N1CCC[C@@H]1[C@H](OC)[C@@H](C)C(=O)N[C@H](C)[C@@H](O)c1ccccc1)OC)N(C)C(=O)[C@@H](NC(=O)[C@H](C(C)C)N(C)C(=O)OCc1ccc(NC(=O)CNC(=O)[C@H](Cc2ccccc2)NC(=O)CNC(=O)CNC(=O)CN2CCOCCN(C(=O)CCOCCOCCOCCOCCN3C(=O)C=CC3=O)CCOCC2)cc1)C(C)C [Example 85] (MaleimidoPEG4propanoyl-[X1]GGFG[PABC][NMeV]V[Dil][X2]-X3),DAR,[1],4.04
same,Polymer content (%),[2],1.43%
same,Naked antibody content (%),[3],1.98%
same,DAR,"[4]; Day 0, 40° C. in dark",4.04
same,Polymer content (%),"[4]; Day 0, 40° C. in dark",1.43%
same,DAR,"[4]; Day 7, 40° C. in dark",4.08
same,Polymer content (%),"[4]; Day 7, 40° C. in dark",1.48%
same,DAR,"[4]; Day 14, 40° C. in dark",4.00
same,Polymer content (%),"[4]; Day 14, 40° C. in dark",1.45%
